According to US11214614B2, “LTBP complex-specific inhibitors of TGFβ and uses thereof” (Scholar Rock, Inc., priority 2019, dated 2022):

Key:
[1] = literature reports (Frazier et al. 2007; Stauber et al. 2014, chronic ≥3 months); cited from earlier work
[2] = Four-week toxicology study in rats; format: in vivo, rat
Source text: Maximally tolerated dose (MTD): The term MTD generally refers to, in the context of safety/toxicology considerations, the highest amount of a test article (such as a TGFβ1 inhibitor) evaluated with no observed adverse effect level (NOAEL).
Therapeutic window: The term “therapeutic window” refers to a range of doses/concentrations that produces therapeutic response without causing significant/observable/unacceptable adverse effect (e.g., within adverse effects that are acceptable or tolerable) in subjects. Therapeutic window may be calculated as a ratio between […].
Toxicity: As used herein, the term “toxicity” or “toxicities” refers to unwanted in vivo effects in patients associated with a therapy administered to the patients, such as undesirable side effects and adverse events. “Tolerability” refers to a level of toxicities associated with a therapy or therapeutic regimen, which can be reasonably tolerated by patients, without discontinuing the therapy due to the toxicities (i.e., acceptable level of toxicities). Typically, toxicity/toxicology studies are carried out in one or more preclinical models prior to clinical development to assess safety profiles of a drug candidate (e.g., monoclonal antibody therapy). […]

huGARP proTGFβ1 [3] = target: T1, huGARP proTGFβ1 (Homo sapiens, UniProt P01137); test: Octet (BLI) binding, IgG captured on AHC tips, antigen at 100 nM; details: N.B. = non-binder under conditions of this assay; for ForteBio IgG KD Hu GARP-proTGFβ1 (M) Avid: Table 9, cycle 3, IgG1-agly, 1:1 fit; for ForteBio IgG KD Hu GARP-proTGFβ1 in solution (M) Avid: Table 10, same assay conditions as Table 9
Summary of the method: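 Antibody loaded at 1 μg/mL onto anti-human Fc capture biosensors, then exposed to human GARP-proTGFβ1 at 100 nM in 1× kinetics buffer with 1000 rpm shaking. Association 3 min, dissociation 3 or 5 min; KD from 1:1 local full fit.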

huLTBP1 proTGFβ1 [4] = target: T2, huLTBP1 proTGFβ1 (Homo sapiens, UniProt P01137+Q14766); test: as above; details: Table 9, cycle 3, IgG1-agly; for Hu LTBP1-proTGFβ1 Kon: 1:1 fit; for Hu LTBP1-proTGFβ1 Koff: 5-minute dissociation
Summary of the method: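 Antibodies were captured on anti-human Fc biosensors at 1 μg/mL (~7 nM), to a maximum response of 1 nm. Antigen complex was run at a single 100 nM in 1× kinetics buffer, shaking at 1000 rpm. Association was 3 min and dissociation 3 min (5 min in later rounds), with KD from a local, full 1:1 fit.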

huLTBP3 proTGFβ1 [5] = target: T3, huLTBP3 proTGFβ1 (Homo sapiens, UniProt P01137+Q9NS15); test: as above; details: Table 9, cycle 3, IgG1-agly; for Hu LTBP3-proTGFβ1 Kon: 1:1 fit; for Hu LTBP3-proTGFβ1 Koff: 5-minute dissociation
Summary of the method: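 Antibodies loaded at 1 μg/mL onto anti-human Fc sensors were exposed to each TGFβ1 complex at 100 nM in kinetics buffer. Association ran 3 min; dissociation was 3 min in one protocol and 5 min in another. KD came from a 1:1 fitting model.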

huLTBP1 proTGFβ1 [6] = target: T2, huLTBP1 proTGFβ1; test: SPR (Biacore 8K) monovalent binding kinetics of Fabs, biotinylated antigen captured; design: biotin (complex biotinylated); details: for ka / kd: Fab, huLTBP1 proTGFβ1, SR-AB42-HuFab average of five, SR-AB63-HuFab average of four replicate experiments
Procedure: (§1) A Biacore 8K system was employed to determine the monovalent binding affinity and the kinetic parameters for antigen binding of test antibodies. Association and dissociation kinetics of Fab fragments SR-AB42-HuFab, SR-AB63-HuFab and SR-AB43-HuFab to antigen complexes were measured, and resulting ka, kd and KD are provided below. Briefly, the binding kinetics were evaluated by surface plasmon resonance using Biacore 8K (GE Healthcare). Biotinylated capture antigens were immobilized to the chip (10 nM, ˜200 RU loading). A Biotin CAPture sensor chip was used to capture the biotinylated antigens. Fabs at 10, 5, 2.5, 1.25, and 0.6 nM concentrations were injected over the captured antigens. 0 nM was used as a reference. Affinities of LTBP antibodies to GARP and LRRC33 were confirmed using higher concentration of Fabs (100, 50, 25, 12.5, 6.25 nM). 0 nM was used as a reference. Multi-cycle kinetics was employed where each analyte concentration was injected in a separate cycle and the sensor chip surface was regenerated after each cycle. All the assays were carried out in freshly prepared 1×HBS-EP+buffer (10 mM HEPES, 150 mM NaCl, 3 mM EDTA, 0.05% Tween20, pH 7.4). Data were fit globally to a 1:1 binding model to obtain the kinetic parameters. The sensorgram for 0 nM analyte concentration was used as reference.
(§2) • 96 well plates—Greinerbio-one REF 650101 • Microplate Foils—GE Healthcare—CAT #28-9758-16 • Biotin CAPture Kit GE Healthcare product number 28920233 • Biacore running buffer—supplied as a 20× solution, diluted in Milli-Q water, TEKnova CAT #H8022 Method:
(§3) These experiments were performed using the Biacore 8K using the method “multi-cycle kinetics/affinity using Biotin CAPture kit.”
(§4) Data collection rate was set to 10 Hz and the Biotin CAPture step was performed for 300 seconds with a flow rate of 2 μL/minute. The Biotin CAPture reagent was used after a 1:5 dilution in 1× Biacore running buffer. Biotinylated ligands (the various complexes of TGFβ1) were utilized at a concentration of 10 nM and were immobilized to the sensor chip for 180 seconds with a flow rate of 10 μL/minute. The analytes, which are each of the Fabs, were tested at 10, 5, 2.5, 1.25, and 0.625 nM with a 0 nM control included. Analyte contact time was 120 seconds and the dissociation time was 900 seconds. The regeneration cycle utilized was 120 seconds with a flow rate of 10 μL/minute.
(§5) The evaluation method used was “multi-cycle affinity using capture” and a 1:1 binding model was used. […] Global fits were utilized for every KD determination.

Murine LTBP3 proTGFβ1 = target: T4, Murine LTBP3 proTGFβ1 (Mus musculus, UniProt P04202+Q61810); test: as above; details: Fab, Murine LTBP3 proTGFb1; average of two replicate experiments
T4 construct: biotin (complex biotinylated)
Procedure: as §1, §2, §3, §4, §5

huGARP proTGFβ1 [7] = target: T1, huGARP proTGFβ1; test: as above; design: biotin (complex biotinylated); details: Fab, huGARP proTGFb1
Procedure: as §1, §2, §3, §4, §5

huLTBP3 proTGFβ1 [8] = target: T3, huLTBP3 proTGFβ1; test: as above; design: biotin (complex biotinylated); details: Fab, huLTBP3 proTGFb1
Procedure: as §1, §2, §3, §4, §5

huLRRC33 proTGFβ1 = huLRRC33 proTGFβ1 (Homo sapiens, UniProt P01137); test: as above; design: biotin (complex biotinylated); modified human kappa light chain signal peptide (N); Histidine tag (C); details: Fab, huLRRC33 proTGFb1
Procedure: as §1, §2, §3, §4, §5

T4 sequence (P04202 30-390): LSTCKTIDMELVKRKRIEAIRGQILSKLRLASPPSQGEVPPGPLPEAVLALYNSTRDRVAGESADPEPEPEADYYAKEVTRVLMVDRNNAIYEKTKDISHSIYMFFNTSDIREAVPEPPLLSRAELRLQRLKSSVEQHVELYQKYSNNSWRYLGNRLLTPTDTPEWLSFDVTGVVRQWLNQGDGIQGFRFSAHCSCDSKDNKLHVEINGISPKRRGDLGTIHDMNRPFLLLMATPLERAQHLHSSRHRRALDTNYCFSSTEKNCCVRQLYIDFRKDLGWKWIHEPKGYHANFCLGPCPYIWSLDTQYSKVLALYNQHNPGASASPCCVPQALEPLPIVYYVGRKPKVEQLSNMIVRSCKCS
T4 sequence (Q61810 with tags, fused parts or gaps with the stated changes limits assumed): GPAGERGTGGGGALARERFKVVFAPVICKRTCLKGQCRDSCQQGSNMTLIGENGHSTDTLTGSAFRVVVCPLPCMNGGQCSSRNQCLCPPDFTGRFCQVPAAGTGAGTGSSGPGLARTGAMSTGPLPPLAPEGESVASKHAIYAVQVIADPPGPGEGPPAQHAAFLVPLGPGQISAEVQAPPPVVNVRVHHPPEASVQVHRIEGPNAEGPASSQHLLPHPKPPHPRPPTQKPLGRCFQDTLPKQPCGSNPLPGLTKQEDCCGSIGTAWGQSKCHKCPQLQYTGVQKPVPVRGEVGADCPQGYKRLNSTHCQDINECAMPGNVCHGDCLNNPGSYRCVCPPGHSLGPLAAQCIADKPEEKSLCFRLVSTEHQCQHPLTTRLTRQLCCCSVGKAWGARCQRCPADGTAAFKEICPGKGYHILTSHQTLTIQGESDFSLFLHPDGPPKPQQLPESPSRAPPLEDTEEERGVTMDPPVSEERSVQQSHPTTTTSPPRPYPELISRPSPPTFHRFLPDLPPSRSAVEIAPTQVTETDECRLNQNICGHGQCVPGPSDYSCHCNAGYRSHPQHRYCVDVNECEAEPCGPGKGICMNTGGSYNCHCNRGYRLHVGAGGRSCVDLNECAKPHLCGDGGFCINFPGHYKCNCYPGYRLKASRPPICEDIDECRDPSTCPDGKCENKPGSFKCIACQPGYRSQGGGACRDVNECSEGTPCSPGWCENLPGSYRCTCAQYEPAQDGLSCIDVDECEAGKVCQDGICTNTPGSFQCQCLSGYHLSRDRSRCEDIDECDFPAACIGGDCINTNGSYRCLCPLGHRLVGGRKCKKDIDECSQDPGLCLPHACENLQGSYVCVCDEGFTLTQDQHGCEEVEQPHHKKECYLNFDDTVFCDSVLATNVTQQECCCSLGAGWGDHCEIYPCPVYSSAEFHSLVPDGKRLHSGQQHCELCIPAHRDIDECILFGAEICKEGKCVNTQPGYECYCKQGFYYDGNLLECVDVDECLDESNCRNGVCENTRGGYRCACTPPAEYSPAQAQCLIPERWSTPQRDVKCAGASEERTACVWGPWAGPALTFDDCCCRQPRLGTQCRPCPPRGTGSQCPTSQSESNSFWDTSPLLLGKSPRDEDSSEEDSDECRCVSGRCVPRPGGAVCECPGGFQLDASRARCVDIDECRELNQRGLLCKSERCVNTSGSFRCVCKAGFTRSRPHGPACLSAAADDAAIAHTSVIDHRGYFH
T3 sequence (P01137 30-390): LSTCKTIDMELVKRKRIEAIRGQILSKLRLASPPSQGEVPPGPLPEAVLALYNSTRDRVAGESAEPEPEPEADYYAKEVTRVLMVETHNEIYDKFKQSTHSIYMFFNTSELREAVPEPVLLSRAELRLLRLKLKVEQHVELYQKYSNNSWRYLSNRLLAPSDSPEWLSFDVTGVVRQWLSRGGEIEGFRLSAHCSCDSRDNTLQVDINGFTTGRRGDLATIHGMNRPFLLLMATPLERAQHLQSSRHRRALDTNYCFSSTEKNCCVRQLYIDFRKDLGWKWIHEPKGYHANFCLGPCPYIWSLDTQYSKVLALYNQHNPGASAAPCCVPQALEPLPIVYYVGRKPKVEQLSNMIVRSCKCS
T3 sequence (Q9NS15 44-1303): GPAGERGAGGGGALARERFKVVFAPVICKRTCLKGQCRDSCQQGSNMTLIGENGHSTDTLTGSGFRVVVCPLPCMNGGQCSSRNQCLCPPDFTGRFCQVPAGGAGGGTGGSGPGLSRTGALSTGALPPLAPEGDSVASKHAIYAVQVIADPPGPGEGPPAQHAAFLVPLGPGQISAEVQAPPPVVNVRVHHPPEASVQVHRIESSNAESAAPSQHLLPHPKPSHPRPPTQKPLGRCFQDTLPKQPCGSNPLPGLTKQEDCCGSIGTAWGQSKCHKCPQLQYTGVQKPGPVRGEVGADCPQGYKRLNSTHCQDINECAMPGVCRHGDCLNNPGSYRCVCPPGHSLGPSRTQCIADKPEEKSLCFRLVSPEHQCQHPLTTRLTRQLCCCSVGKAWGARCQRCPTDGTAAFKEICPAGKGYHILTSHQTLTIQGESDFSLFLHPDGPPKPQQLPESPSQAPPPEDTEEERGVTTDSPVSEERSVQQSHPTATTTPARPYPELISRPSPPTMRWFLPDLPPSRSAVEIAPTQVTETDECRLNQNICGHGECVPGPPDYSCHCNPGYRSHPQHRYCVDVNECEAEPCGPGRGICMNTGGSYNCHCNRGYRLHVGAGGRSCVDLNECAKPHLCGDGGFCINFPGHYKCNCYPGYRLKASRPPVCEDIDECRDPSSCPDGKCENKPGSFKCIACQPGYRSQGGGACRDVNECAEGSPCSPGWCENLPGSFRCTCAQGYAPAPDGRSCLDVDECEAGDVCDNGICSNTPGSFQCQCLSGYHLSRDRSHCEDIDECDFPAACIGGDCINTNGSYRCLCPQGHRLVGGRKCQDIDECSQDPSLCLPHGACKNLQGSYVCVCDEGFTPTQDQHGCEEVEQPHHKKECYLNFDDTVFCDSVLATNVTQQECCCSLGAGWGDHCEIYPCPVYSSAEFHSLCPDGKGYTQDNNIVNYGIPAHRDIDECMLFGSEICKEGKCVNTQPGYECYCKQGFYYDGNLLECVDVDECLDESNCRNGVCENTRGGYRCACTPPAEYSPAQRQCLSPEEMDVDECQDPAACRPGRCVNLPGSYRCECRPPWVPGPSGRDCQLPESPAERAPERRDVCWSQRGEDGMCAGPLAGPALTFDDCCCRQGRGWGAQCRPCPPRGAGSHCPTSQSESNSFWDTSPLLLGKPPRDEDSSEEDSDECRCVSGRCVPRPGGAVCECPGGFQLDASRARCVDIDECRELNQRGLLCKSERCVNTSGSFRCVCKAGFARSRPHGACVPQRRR
huLRRC33 proTGFβ1, sequence (P01137 30-390): as the sequence (P01137 30-390) above
huLRRC33 proTGFβ1, sequence (Q86YC3 with tags, fused parts or gaps partner limits assumed): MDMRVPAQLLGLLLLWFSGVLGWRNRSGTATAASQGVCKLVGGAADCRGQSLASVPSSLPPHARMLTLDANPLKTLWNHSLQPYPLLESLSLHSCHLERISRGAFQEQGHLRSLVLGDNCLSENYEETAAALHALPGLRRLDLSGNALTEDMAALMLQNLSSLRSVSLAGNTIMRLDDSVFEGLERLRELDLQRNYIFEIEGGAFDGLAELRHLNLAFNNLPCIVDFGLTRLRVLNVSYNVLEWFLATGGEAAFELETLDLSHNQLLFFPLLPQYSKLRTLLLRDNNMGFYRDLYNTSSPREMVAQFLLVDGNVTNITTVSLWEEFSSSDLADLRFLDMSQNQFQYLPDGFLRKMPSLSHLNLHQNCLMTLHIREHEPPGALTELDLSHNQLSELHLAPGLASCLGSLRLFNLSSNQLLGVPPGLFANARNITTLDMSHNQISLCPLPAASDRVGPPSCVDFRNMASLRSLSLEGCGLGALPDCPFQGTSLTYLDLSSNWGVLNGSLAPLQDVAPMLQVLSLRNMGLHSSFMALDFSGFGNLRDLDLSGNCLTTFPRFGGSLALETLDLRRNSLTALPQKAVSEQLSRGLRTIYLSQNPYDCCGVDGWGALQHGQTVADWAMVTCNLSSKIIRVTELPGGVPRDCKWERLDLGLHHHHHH
T1 sequence (P01137 30-390): as the sequence (P01137 30-390) above
T1 sequence (Q14392 18-627 partner limits assumed): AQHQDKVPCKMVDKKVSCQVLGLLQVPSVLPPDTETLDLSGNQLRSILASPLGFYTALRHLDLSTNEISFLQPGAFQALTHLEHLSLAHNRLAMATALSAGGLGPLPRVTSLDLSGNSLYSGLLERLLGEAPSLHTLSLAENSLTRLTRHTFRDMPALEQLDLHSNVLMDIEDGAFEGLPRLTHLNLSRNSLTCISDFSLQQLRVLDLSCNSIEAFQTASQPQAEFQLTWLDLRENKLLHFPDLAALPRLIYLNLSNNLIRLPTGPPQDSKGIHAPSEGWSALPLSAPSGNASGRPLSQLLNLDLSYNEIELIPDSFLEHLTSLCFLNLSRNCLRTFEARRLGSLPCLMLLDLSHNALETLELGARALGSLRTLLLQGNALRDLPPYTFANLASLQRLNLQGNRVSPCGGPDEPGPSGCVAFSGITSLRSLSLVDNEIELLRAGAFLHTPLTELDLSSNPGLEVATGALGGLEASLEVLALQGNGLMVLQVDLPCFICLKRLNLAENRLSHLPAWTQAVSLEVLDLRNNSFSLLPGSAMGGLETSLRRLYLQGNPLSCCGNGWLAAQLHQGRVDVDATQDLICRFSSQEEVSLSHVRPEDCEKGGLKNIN

In the case of O=C(NC1CCOCC1)c1ccc(-c2cc(-c3c[nH]nc3-c3ccccn3)ccn2)cc1 [GW788388], the Toxicity in rats [1] is listed as “induced physeal dysplasia in rats”.

B1: Ab2: TGFβ1 inhibitor test article of a four-week rat toxicology study; b152 gives same data for a context-independent TGFβ1 inhibitor antibody (antibody, V domains shown)
VH: QVQLVQSGAEVKKPGASVKVSCKASGYTFTSYGISWVRQAPGQGLEWMGWISAYNGNTNYAQKLQGRVTMTTDTSTSTAYMELRSLRSDDTAVYYCARAPLGNFDSWGQGTMVTVSS
VL: NFMLTQPHSVSESPGKTVTISCTRSSGSIASNYVQWYQQRPGSSPTTVIYEDNQRPSGVPDRFSGSIDSSSNSASLTISGLKTEDEADYYCQSYDSSNHPVVFGGGTKLTVL
In the case of B1, the MTD [2] is reported as greater than 100 mg/kg and the NOAEL ([2]; highest dose evaluated) is reported as 100 mg/kg.

B2: SR-AB43: cycle 3 light chain-optimized antibody, lineage SR-AB23; CDRs SEQ ID NO: 172-177 (antibody, V domains shown)
VH: QVQLVESGGGVVQPGRSLRLSCAASGFTFRSYVMHWVRQAPGKGLEWVAVISHEGSLKYYADSVKGRFTISRDNSKNTLYLQMNSLRAEDTAVYYCARPRIAARRGGFGYWGQGTLVTVSS
VL: NFMLTQPHSVSESPGKTVTISCTRSSGNIDYNYVQWYQQRPGSSPTTVIYEDNVRPSGVPDRFSGSIDSSSNSASLTISGLKTEDEADYYCQSYDSDNQRVVFGGGTKLTVL
With B2 the “ForteBio IgG KD Hu GARP-proTGFβ1 (M) Avid” value (huGARP proTGFβ1 [3]) was “N.B”, the “ForteBio IgG KD Hu GARP-proTGFβ1 in solution (M) Avid” value (huGARP proTGFβ1 [3]) was “N.B” and the “Hu LTBP1-proTGFβ1 Kon” value (huLTBP1 proTGFβ1 [4]) was 244000 M⁻¹ s⁻¹. The “Hu LTBP1-proTGFβ1 Koff” value (huLTBP1 proTGFβ1 [4]) was 0.000159 s⁻¹, the “Hu LTBP3-proTGFβ1 Kon” value (huLTBP3 proTGFβ1 [5]) was 337000 M⁻¹ s⁻¹ and the “Hu LTBP3-proTGFβ1 Koff” value (huLTBP3 proTGFβ1 [5]) was 6e-05 s⁻¹. The “KD of Fab fragments” value (huLTBP1 proTGFβ1 [6]; SPR, Fab fragments, antigen not given) was “sub-nanomolar”.

B3: SR-AB62: cycle 3 light chain-optimized antibody, lineage SR-AB24; CDRs SEQ ID NO: 286-291 (antibody, V domains shown)
VH: QLQLQESGPGLAKPSETLSLTCTVSGGSIRSSSYYWGWIRQPPGKGLEWIGSISYSATTYYNPSLKSRVTISVDTSKNQFSLKLSSVTAADTAVYYCASDPSYDSAAGMDVWGQGTTVTVSS
VL: DIQMTQSPSSLSASVGDRVTITCRASKVISSYLNWYQQKPGKAPKLLIYYASSLQSGVPSRFSGSGSGTDFTLTISSLQPEDFATYYCQQSNDWPFTFGGGTKVEIK
With B3 the “ForteBio IgG KD Hu GARP-proTGFβ1 (M) Avid” value (huGARP proTGFβ1 [3]) was “N.B”, the “ForteBio IgG KD Hu GARP-proTGFβ1 in solution (M) Avid” value (huGARP proTGFβ1 [3]) was “N.B” and the “Hu LTBP1-proTGFβ1 Kon” value (huLTBP1 proTGFβ1 [4]) was 140000 M⁻¹ s⁻¹. The “Hu LTBP1-proTGFβ1 Koff” value (huLTBP1 proTGFβ1 [4]) was 6.82e-05 s⁻¹, the “Hu LTBP3-proTGFβ1 Kon” value (huLTBP3 proTGFβ1 [5]) was 203000 M⁻¹ s⁻¹ and the “Hu LTBP3-proTGFβ1 Koff” value (huLTBP3 proTGFβ1 [5]) was 7.47e-05 s⁻¹.

B4: SR-AB42-HuFab: human Fab fragment of SR-AB42 used in SPR (antibody, V domains shown)
VH: QVQLVESGGGVVQPGRSLRLSCAASGFTFRSYVMHWVRQAPGKGLEWVAVISHEGSLKYYADSVKGRFTISRDNSKNTLYLQMNSLRAEDTAVYYCARPRIAARRGGFGYWGQGTLVTVSS
VL: NFMLTQPHSVSESPGKTVTISCTRSSGNIDNNYVQWYQQRPGSSPTTVIYEDNQRPSGVPDRFSGSIDSSSNSASLTISGLKTEDEADYYCQSYDYDTQGVVFGGGTKLTVL
Work on B4 yielded a ka (Murine LTBP3 proTGFβ1) of 1.23e+08 M⁻¹ s⁻¹, a kd (Murine LTBP3 proTGFβ1) of 0.397 s⁻¹ and a ka (huGARP proTGFβ1 [7]) of 155000 M⁻¹ s⁻¹. The kd (huGARP proTGFβ1 [7]) was 0.00604 s⁻¹, the ka (huLTBP1 proTGFβ1 [6]) was 543000 M⁻¹ s⁻¹ and the kd (huLTBP1 proTGFβ1 [6]) was 0.000105 s⁻¹. It also gave a ka (huLTBP3 proTGFβ1 [8]) of 405000 M⁻¹ s⁻¹, a kd (huLTBP3 proTGFβ1 [8]) of 0.000142 s⁻¹ and a ka (huLRRC33 proTGFβ1) of 80900 M⁻¹ s⁻¹. For the same molecule, the kd (huLRRC33 proTGFβ1) was 0.00353 s⁻¹.

B5: SR-AB63-HuFab: human Fab fragment of SR-AB63 used in SPR (antibody, V domains shown)
VH: QLQLQESGPGLVKPSETLSLTCTVSGGSIRSSSYYWGWIRQPPGKGLEWIGSISYSATTYYNPSLKSRVTISVDTSKNQFSLKLSSVTAADTAVYYCAGDPSYDSIAGMQVWGQGTTVTVSS
VL: DIQLTQSPSSLSASVGDRVTITCRASQSISSYLNWYQQKPGKAPKLLIYAASNLQSGVPSRFSGSGSGTDFTLTISSLQPEDFATYYCQQSFDWPLTFGGGTKVEIK
B5 showed a ka (huGARP proTGFβ1 [7]) of 2660 M⁻¹ s⁻¹, a kd (huGARP proTGFβ1 [7]) of 0.00093 s⁻¹ and a ka (huLTBP1 proTGFβ1 [6]) of 371000 M⁻¹ s⁻¹. The kd (huLTBP1 proTGFβ1 [6]) was 3.82e-08 s⁻¹, the ka (huLTBP3 proTGFβ1 [8]) was 394000 M⁻¹ s⁻¹ and the kd (huLTBP3 proTGFβ1 [8]) was 4.99e-05 s⁻¹. For the same molecule, the ka (huLRRC33 proTGFβ1) was 5000 M⁻¹ s⁻¹ and the kd (huLRRC33 proTGFβ1) was 0.00108 s⁻¹.

B6: SR-AB43-HuFab: human Fab fragment of SR-AB43 used in SPR (antibody, V domains shown)
VH: QVQLVESGGGVVQPGRSLRLSCAASGFTFRSYVMHWVRQAPGKGLEWVAVISHEGSLKYYADSVKGRFTISRDNSKNTLYLQMNSLRAEDTAVYYCARPRIAARRGGFGYWGQGTLVTVSS
VL: NFMLTQPHSVSESPGKTVTISCTRSSGNIDYNYVQWYQQRPGSSPTTVIYEDNVRPSGVPDRFSGSIDSSSNSASLTISGLKTEDEADYYCQSYDSDNQRVVFGGGTKLTVL
Work on B6 yielded a ka (Murine LTBP3 proTGFβ1) of 1.82e+09 M⁻¹ s⁻¹, a kd (Murine LTBP3 proTGFβ1) of 6.37 s⁻¹ and a ka (huLTBP1 proTGFβ1 [6]) of 1.03e+06 M⁻¹ s⁻¹. The kd (huLTBP1 proTGFβ1 [6]) was 0.000284 s⁻¹.
